Assay results: publication PMC2661055, “The C-terminal sequence of the large hepatitis delta antigen is variable but retains the ability to bind clathrin” (Virology Journal, 2009)

T1: GST-LDII_(C(198–210)) (GST fused to amino acids 198-210 of genotype II LDAg) (hepatitis delta virus genotype II …)
T1 construct: amino acids 198-210 of the large delta antigen of HDV genotype II, Taiwan-3 strain, GenBank U19598; Inserted downstream of GST in pGEX-4T1 by EcoRI and SalI; also called 13-amino-acid peptide of genotype II LDAg; source: E. coli BL21 (DE3), purified (glutathione beads); not shown: GST, N-terminal, kept
T1 chain: GPSPPQQRLPLLE

B1: clathrin heavy chain (full-length, endogenous in HuH-7 cells) (natural protein, human (endogenous in HuH-7), UniProt Q00610 1-1675, looked up)
chain: MAQILPIRFQEHLQLQNLGINPANIGFSTLTMESDKFICIREKVGEQAQVVIIDMNDPSNPIRRPISADSAIMNPASKVIALKAGKTLQIFNIEMKSKMKAHTMTDDVTFWKWISLNTVALVTDNAVYHWSMEGESQPVKMFDRHSSLAGCQIINYRTDAKQKWLLLTGISAQQNRVVGAMQLYSVDRKVSQPIEGHAASFAQFKMEGNAEESTLFCFAVRGQAGGKLHIIEVGTPPTGNQPFPKKAVDVFFPPEAQNDFPVAMQISEKHDVVFLITKYGYIHLYDLETGTCIYMNRISGETIFVTAPHEATAGIIGVNRKGQVLSVCVEEENIIPYITNVLQNPDLALRMAVRNNLAGAEELFARKFNALFAQGNYSEAAKVAANAPKGILRTPDTIRRFQSVPAQPGQTSPLLQYFGILLDQGQLNKYESLELCRPVLQQGRKQLLEKWLKEDKLECSEELGDLVKSVDPTLALSVYLRANVPNKVIQCFAETGQVQKIVLYAKKVGYTPDWIFLLRNVMRISPDQGQQFAQMLVQDEEPLADITQIVDVFMEYNLIQQCTAFLLDALKNNRPSEGPLQTRLLEMNLMHAPQVADAILGNQMFTHYDRAHIAQLCEKAGLLQRALEHFTDLYDIKRAVVHTHLLNPEWLVNYFGSLSVEDSLECLRAMLSANIRQNLQICVQVASKYHEQLSTQSLIELFESFKSFEGLFYFLGSIVNFSQDPDVHFKYIQAACKTGQIKEVERICRESNCYDPERVKNFLKEAKLTDQLPLIIVCDRFDFVHDLVLYLYRNNLQKYIEIYVQKVNPSRLPVVIGGLLDVDCSEDVIKNLILVVRGQFSTDELVAEVEKRNRLKLLLPWLEARIHEGCEEPATHNALAKIYIDSNNNPERFLRENPYYDSRVVGKYCEKRDPHLACVAYERGQCDLELINVCNENSLFKSLSRYLVRRKDPELWGSVLLESNPYRRPLIDQVVQTALSETQDPEEVSVTVKAFMTADLPNELIELLEKIVLDNSVFSEHRNLQNLLILTAIKADRTRVMEYINRLDNYDAPDIANIAISNELFEEAFAIFRKFDVNTSAVQVLIEHIGNLDRAYEFAERCNEPAVWSQLAKAQLQKGMVKEAIDSYIKADDPSSYMEVVQAANTSGNWEELVKYLQMARKKARESYVETELIFALAKTNRLAELEEFINGPNNAHIQQVGDRCYDEKMYDAAKLLYNNVSNFGRLASTLVHLGEYQAAVDGARKANSTRTWKEVCFACVDGKEFRLAQMCGLHIVVHADELEELINYYQDRGYFEELITMLEAALGLERAHMGMFTELAILYSKFKPQKMREHLELFWSRVNIPKVLRAAEQAHLWAELVFLYDKYEEYDNAIITMMNHPTDAWKEGQFKDIITKVANVELYYRAIQFYLEFKPLLLNDLLMVLSPRLDHTRAVNYFSKVKQLPLVKPYLRSVQNHNNKSVNESLNNLFITEEDYQALRTSIDAYDNFDNISLAQRLEKHELIEFRRIAAYLFKGNNRWKQSVELCKKDSLYKDAMQYASESKDTELAEELLQWFLQEEKRECFGACLFTCYDLLRPDVVLETAWRHNIMDFAMPYFIQVMKEYLTKVDKLDASESLRKEEEQATETQPIVYGQPQLMLTAGPSVAVPPQAPFGYGYTAPPYGQPQPGFGYSM
notes: clathrin heavy chain, endogenous in the human hepatoma cell line HuH-7, detected with anti-clathrin heavy chain; also called CHC; source: endogenous, HuH-7 lysate
B2: 6XHis-CHC_((1–107)) (hexahistidine-tagged fragment, amino acids 1 to 107, of human clathrin heavy chain) (domain or fragment, UniProt Q00610 1-107, looked up)
chain: MAQILPIRFQEHLQLQNLGINPANIGFSTLTMESDKFICIREKVGEQAQVVIIDMNDPSNPIRRPISADSAIMNPASKVIALKAGKTLQIFNIEMKSKMKAHTMTDD
notes: human clathrin heavy chain, amino acids 1 to 107, cDNA amplified by RT-PCR and inserted downstream of the hexahistidine tag of pET-15b; also called fragment of CHC; 107-amino-acid peptide of CHC; source: E. coli BL21 (DE3), purified (nickel beads); not shown: His6, N-terminal, kept
B3: GST-LDIII_(C(198–210)) (GST fused to amino acids 198-210 of genotype III LDAg) (domain or fragment)
chain: FTPPPPGYYWVPG
notes: amino acids 198-210 of the large delta antigen of HDV genotype III, Peru-1 strain, GenBank L22063; Inserted downstream of GST in pGEX-4T1 by EcoRI and SalI; also called 13-amino-acid peptide of genotype III LDAg; source: E. coli BL21 (DE3), purified (glutathione beads); not shown: GST, N-terminal, kept

Assays:
[1] = target: EGFP-LDIII (EGFP fused to full-length large hepatitis delta antigen of HDV genotype III, Peru-1 strain) (hepatitis delta virus genotype III (Peru-1 strain)); test: co-IP; HuH-7 cells transfected with pEGFP-C3 or pEGFP-LD plasmids, TNF-α (30 ng/ml) for 2 h at 24 h post-transfection; lysate precipitated with anti-GFP, blot for CHC; CHC normalised to actin, genotype I set to 1, mean of three experiments
[2] = target: EGFP-LDII (EGFP fused to full-length large hepatitis delta antigen of HDV genotype II, Taiwan-3 strain) (hepatitis delta virus genotype II (Taiwan-3 strain)); test: as above
[3] = target: B3; test: pull-down; GST or GST-LD_(C(198–210)) on Glutathione Sepharose 4B beads incubated with HuH-7 cell lysate for 16 h at 4°C; three washes with 0.05% Tween-20 in PBS; blot for CHC; mean of three experiments; details: one partner purified
[4] = target: T1, GST-LDII_(C(198–210)) (GST fused to …); test: as above; details: one partner purified
[5] = target: B3; test: pull-down; GST or GST-LD_(C(198–210)) on Glutathione Sepharose 4B beads incubated with E. coli produced, purified 6XHis-CHC_((1–107)) for 16 h at 4°C; three washes with 0.05% Tween-20 in PBS; SDS-PAGE, silver stain; mean of three experiments; details: both partners purified
[6] = target: T1, GST-LDII_(C(198–210)) (GST fused to …); test: as above; details: both partners purified
[7] = target: B2; test: as above; details: both partners purified

clathrin heavy chain (full-length, endogenous in HuH-7 cells) (from UniProt Q00610 1-1675) (natural protein)
amount of CHC co-precipitated, ratio to EGFP-LDI (fold of EGFP-LDI) [1]: 2.2
amount of CHC co-precipitated, ratio to EGFP-LDI (fold of EGFP-LDI) [2]: 2.6

B1
normalized amount of CHC bound, ratio to genotype I [3]: 1.3 fold of genotype I
normalized amount of CHC bound, ratio to genotype I [4]: 1.6 fold of genotype I

B2
amount of CHC fragment pulled down, ratio to GST-LDI_(C(198–210)) [5]: 0.7 fold of GST-LDI_(C(198–210))
amount of CHC fragment pulled down, ratio to GST-LDI_(C(198–210)) [6]: 1.4 fold of GST-LDI_(C(198–210))

B3
binding result [7]: binds
